Assay results as given in article PMC9969229.

Legend:
[1] = target: glycosylated prostate specific antigen (human) (UniProt P07288); test: BLI; […] (0.4 μg mL^-1) […]
[2] = target: neuraminidase-treated glycosylated human PSA (human) (UniProt P07288); test: BLI; […] (15 μg mL^-1) […], in buffer

Substance: Sambucus nigra lectin (natural protein)
- maximum signal to noise (PSA against no PSA) [1]: 12.8
- signal to noise (PSA against no PSA) [1]: 1.5
- reduction in signal against fresh glycosylated PSA [2]: 50%
